Test results from PMC2756588.

Assays:
Test in all cases: SPOT array
Cdc25, P04821 = target: T1, Cdc25, P04821; conditions: median of control spots 969
T1 sequence (P04821 50-136, looked up): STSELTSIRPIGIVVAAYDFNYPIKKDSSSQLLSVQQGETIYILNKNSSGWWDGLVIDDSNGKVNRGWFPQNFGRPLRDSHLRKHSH

Cyk3, Q07533 = target: T2, Cyk3, Q07533; conditions: median of control spots 1451
T2 sequence (Q07533 1-83, looked up): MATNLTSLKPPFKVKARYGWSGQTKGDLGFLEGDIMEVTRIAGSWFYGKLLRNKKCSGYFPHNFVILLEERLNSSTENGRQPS

Sla1-3, P32790 = target: T3, Sla1-3, P32790; conditions: median of control spots 5475
T3 sequence (P32790 344-424, looked up): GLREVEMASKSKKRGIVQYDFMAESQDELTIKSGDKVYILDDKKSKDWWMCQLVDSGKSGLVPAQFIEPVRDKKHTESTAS

Fus1, P11710 = target: T4, Fus1, P11710; conditions: median of control spots 1200
T4 sequence (P11710 432-512, looked up): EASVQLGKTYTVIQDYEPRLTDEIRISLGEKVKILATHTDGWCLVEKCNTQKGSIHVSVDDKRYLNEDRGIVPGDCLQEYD

Bbc1, P47068 = target: T5, Bbc1, P47068; conditions: median of control spots 796
T5 sequence (P47068 1-78, looked up): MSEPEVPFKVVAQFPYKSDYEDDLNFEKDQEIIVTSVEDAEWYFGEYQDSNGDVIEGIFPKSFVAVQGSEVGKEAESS

Pin3, Q06449 = target: T6, Pin3, Q06449; conditions: median of control spots 2171
T6 sequence (Q06449 53-122, looked up): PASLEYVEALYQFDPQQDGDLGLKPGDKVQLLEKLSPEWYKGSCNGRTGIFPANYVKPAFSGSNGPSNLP

Bem1-2, P29366 = conditions: median of control spots 4347
Sequence of Bem1-2, P29366 (P29366 139-227): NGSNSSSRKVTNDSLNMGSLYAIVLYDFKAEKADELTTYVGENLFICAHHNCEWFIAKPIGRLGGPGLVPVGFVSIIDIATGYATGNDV

GST = conditions: median of control spots 978
Sho1, P40073 = conditions: median of control spots 1148
Sequence of Sho1, P40073 (P40073 287-367): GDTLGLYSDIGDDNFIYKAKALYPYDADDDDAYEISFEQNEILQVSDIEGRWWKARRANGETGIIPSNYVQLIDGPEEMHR

Boi2, P39969 = target: T7, Boi2, P39969; conditions: median of control spots 1161
T7 sequence (P39969 32-116, looked up): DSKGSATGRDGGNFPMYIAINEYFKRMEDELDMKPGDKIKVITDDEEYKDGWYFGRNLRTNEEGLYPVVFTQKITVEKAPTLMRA

Myo3, P36006 = conditions: median of control spots 468
Rvs167, P39743 = conditions: median of control spots 2707
Sequence of Rvs167, P39743 (P39743 419-482): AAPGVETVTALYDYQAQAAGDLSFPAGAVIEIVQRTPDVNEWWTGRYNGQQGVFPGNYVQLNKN

Hof1, Q05080 = target: T8, Hof1, Q05080; conditions: median of control spots 4086
T8 sequence (Q05080 590-669, looked up): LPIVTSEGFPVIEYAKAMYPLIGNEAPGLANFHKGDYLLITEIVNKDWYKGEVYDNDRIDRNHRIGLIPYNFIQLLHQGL

Bzz1-2, P38822 = target: T9, Bzz1-2, P38822; conditions: median of control spots 4538
T9 sequence (P38822 568-633, looked up): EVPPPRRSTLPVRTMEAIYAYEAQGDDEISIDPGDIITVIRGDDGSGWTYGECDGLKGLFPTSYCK

Lsb1, P53281 = target: T10, Lsb1, P53281; conditions: median of control spots 388
T10 sequence (P53281 45-122, looked up): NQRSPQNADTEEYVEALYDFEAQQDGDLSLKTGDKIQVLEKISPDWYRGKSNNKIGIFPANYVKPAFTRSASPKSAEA

Lsb3, P43603 = target: T11, Lsb3, P43603; conditions: median of control spots 406
T11 sequence (P43603 385-451, looked up): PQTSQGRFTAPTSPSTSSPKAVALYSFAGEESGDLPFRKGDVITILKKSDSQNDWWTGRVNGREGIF

Myo5, Q04439 = target: T12, Myo5, Q04439; conditions: median of control spots 471
T12 sequence (Q04439 1072-1160, looked up): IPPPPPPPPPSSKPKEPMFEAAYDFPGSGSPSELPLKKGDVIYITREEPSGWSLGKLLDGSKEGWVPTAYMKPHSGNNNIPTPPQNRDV

Pex13, P80667 = target: T13, Pex13, P80667; conditions: median of control spots 1341
T13 sequence (P80667 295-386, looked up): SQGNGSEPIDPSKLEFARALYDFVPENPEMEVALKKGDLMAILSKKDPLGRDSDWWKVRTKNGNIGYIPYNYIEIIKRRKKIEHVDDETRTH

Bem1-1, P29366 = conditions: median of control spots 4282
Sequence of Bem1-1, P29366 (P29366 55-141): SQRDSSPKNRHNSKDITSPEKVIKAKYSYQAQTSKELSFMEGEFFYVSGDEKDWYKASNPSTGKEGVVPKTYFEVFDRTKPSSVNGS

Bzz1-1, P38822 = target: T14, Bzz1-1, P38822; conditions: median of control spots 4446
T14 sequence (P38822 478-572, looked up): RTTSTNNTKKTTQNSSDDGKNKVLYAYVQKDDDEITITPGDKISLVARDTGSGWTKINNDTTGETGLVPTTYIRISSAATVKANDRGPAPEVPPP

Boi1, P38041 = target: T15, Boi1, P38041; conditions: median of control spots 1162
T15 sequence (P38041 1-86, looked up): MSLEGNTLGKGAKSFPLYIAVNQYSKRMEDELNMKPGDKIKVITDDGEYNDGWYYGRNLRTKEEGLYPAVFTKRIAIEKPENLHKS

Sla1-2, P32790 = target: T16, Sla1-2, P32790; conditions: median of control spots 712
T16 sequence (P32790 60-140, looked up): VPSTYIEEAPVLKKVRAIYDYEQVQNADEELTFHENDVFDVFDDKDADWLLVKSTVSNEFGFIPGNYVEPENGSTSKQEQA

Abp1, P15891 = target: T17, Abp1, P15891; conditions: median of control spots 935
T17 sequence (P15891 535-592, looked up): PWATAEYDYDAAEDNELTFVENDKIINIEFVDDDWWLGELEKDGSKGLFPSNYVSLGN

Nbp2, Q12163 = target: T18, Nbp2, Q12163; conditions: median of control spots 357
T18 sequence (Q12163 103-180, looked up): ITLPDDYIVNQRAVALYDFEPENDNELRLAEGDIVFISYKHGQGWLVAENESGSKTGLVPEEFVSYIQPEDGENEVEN

Hse1, P38753 = target: T19, Hse1, P38753; conditions: median of control spots 1727
T19 sequence (P38753 208-285, looked up): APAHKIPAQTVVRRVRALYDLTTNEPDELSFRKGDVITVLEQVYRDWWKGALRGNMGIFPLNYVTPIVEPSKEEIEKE

Bud14, P27637 = target: T20, Bud14, P27637; conditions: median of control spots 956
T20 sequence (P27637 247-328, looked up): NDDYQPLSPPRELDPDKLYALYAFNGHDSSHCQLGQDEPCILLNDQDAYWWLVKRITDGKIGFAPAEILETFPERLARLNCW

Lsb4, P32793 = target: T21, Lsb4, P32793; conditions: median of control spots 397
T21 sequence (P32793 402-468, looked up): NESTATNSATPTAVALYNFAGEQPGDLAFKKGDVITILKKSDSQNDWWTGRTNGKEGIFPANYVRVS

Row | Binder | SPOT intensity (Cdc25, P04821) | SPOT intensity (Cyk3, Q07533) | SPOT intensity (Sla1-3, P32790) | SPOT intensity (Fus1, P11710) | SPOT intensity (Bbc1, P47068) | SPOT intensity (Pin3, Q06449) | SPOT intensity (Bem1-2, P29366) | SPOT intensity (GST) | SPOT intensity (Sho1, P40073) | SPOT intensity (Boi2, P39969) | SPOT intensity (Myo3, P36006) | SPOT intensity (Rvs167, P39743) | SPOT intensity (Hof1, Q05080) | SPOT intensity (Bzz1-2, P38822) | SPOT intensity (Lsb1, P53281) | SPOT intensity (Lsb3, P43603) | SPOT intensity (Myo5, Q04439) | SPOT intensity (Pex13, P80667) | SPOT intensity (Bem1-1, P29366) | SPOT intensity (Bzz1-1, P38822) | other results
1 | TTAPALPSLPPPPLL | 0 | 0 | 0 | 0 | 0 | 0 | 0 | 0 | 0 | 0 | 728 | 0 | 6110 | 2 | 0 | 0 | 651 | 4 | 0 | 0 | SPOT intensity (Boi1, P38041): 0; SPOT intensity (Sla1-2, P32790): 0; SPOT intensity (Abp1, P15891): 0; SPOT intensity (Nbp2, Q12163): 0; SPOT intensity (Hse1, P38753): 0; SPOT intensity (Bud14, P27637): 0; SPOT intensity (Lsb4, P32793): 0
2 | PLQSKIPMLPSRRTM | 0 | 2 | 0 | 0 | 29 | 280 | 0 | 0 | 21 | 0 | 102 | 1570 | 186 | 0 | 396 | 635 | 35 | 329 | 1 | 0 | SPOT intensity (Boi1, P38041): 0; SPOT intensity (Sla1-2, P32790): 14; SPOT intensity (Abp1, P15891): 124; SPOT intensity (Nbp2, Q12163): 12; SPOT intensity (Hse1, P38753): 3; SPOT intensity (Bud14, P27637): 0; SPOT intensity (Lsb4, P32793): 960
3 | SSSSTPPTLPPRRIE | 2 | 0 | 1 | 0 | 11 | 58 | 0 | 0 | 0 | 0 | 99 | 5650 | 5 | 0 | 1360 | 1090 | 11 | 365 | 0 | 0 | SPOT intensity (Boi1, P38041): 0; SPOT intensity (Sla1-2, P32790): 1; SPOT intensity (Abp1, P15891): 19; SPOT intensity (Nbp2, Q12163): 0; SPOT intensity (Hse1, P38753): 9; SPOT intensity (Bud14, P27637): 0; SPOT intensity (Lsb4, P32793): 907
